Values joined by “and” are separate entries in the source; they are usually repeats but may differ in a detail not shown here. Equal values may be shown once.
What was measured:
[1] = target: T1, Biotinylated human IL-2 (human, UniProt P60568 21-153, biotin on the biotin acceptor peptide (BirA ligase)); assay: BLI
[2] = target: yeast-displayed hIL-2 (residues 1-133) (human, UniProt P60568 21-153); assay: FACS; yeast surface display
[3] = target: T1, Biotinylated human IL-2; assay: BLI; Fig S1E
[4] = target: F5111 IC LN15 (human, UniProt P60568 21-153); assay: BLI
[5] = target: hIL-2/F5111.2 complex (1:1 molar ratio) (human, UniProt P60568 21-153); assay: BLI
[6] = target: F5111 IC LN35 (human, UniProt P60568 21-153); assay: BLI
[7] = target: F5111.2 IC LN35 (human, UniProt P60568 21-153); assay: BLI
[8] = target: Control (FITC-E2) IC LN35 (human, UniProt P60568 21-153); assay: BLI
[9] = target: hIL-2/F5111 complex (1:1 molar ratio) (human, UniProt P60568 21-153); assay: BLI
[10] = target: F5111 IC LN25 (human, UniProt P60568 21-153); assay: BLI

T1 sequence (P60568 21-153): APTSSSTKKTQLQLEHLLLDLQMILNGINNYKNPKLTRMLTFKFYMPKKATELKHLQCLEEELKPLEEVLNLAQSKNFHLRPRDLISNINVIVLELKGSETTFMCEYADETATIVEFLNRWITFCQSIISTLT
Chain of yeast-displayed hIL-2 (residues 1-133) (P60568 21-153): as above

Row | Kd [1] [nM] | Kd [2] [nM] | Kd [3] [nM] | Kd [4] [nM] | Kd [5] [nM] | Kd [6] | Kd [7] [nM] | Kd [8] | Kd [9] [nM] | Kd [10] [nM] | Binder
1 | 4.9 | – | – | – | – | – | – | – | – | – | F5111.2 Antibody (N297A) (antibody, V domains shown) VH: QLQLQESGPGLVKPSQTLSLTCTVSGGSISSGGYYWSWIRQHPGKGLEWIGYIYKSGSAYYSPSLKSRVTISVDTSKNQFSLKLSSVTAADTAVYYCARTPTVTGDWFDPWGRGTLVTVSS VL: NFMLTQPHSVSESPGKTVTISCTRSSGSIASNYVQWYQQRPGSSPTTVIYEDNQRPSGVPDRFSGSIDSSSNSASLTISGLKTEDEADYYCQTYDSIDVYFGGGTKLTVL
2 | 2.7 | 0.42 | 2.1 | – | – | – | – | – | – | – | F5111 antibody (antibody, V domains shown) VH: QLQLQESGPGLVKPSQTLSLTCTVSGGSISSGGYYWSWIRQHPGKGLEWIGYIYYSGSTYYNPSLKSRVTISVDTSKNQFSLKLSSVTAADTAVYYCARTPTVTGDWFDPWGRGTLVTVSS VL: NFMLTQPHSVSESPGKTVTISCTRSSGSIASNYVQWYQQRPGSSPTTVIYEDNQRPSGVPDRFSGSIDSSSNSASLTISGLKTEDEADYYCQSYDSSNVVFGGGTKLTVL
3 | – | – | – | 7.5 | 68 | 3.2 nM and 3 nM | 2.4 | 2.5 nM and 3.4 nM | 18 | – | Biotinylated human IL-2Rα extracellular domain (residues 1-217) (receptor, biotin on the biotin acceptor peptide (BirA ligase)) ELCDDDPPEIPHATFKAMAYKEGTMLNCECKRGFRRIKSGSLYMLCTGNSSHSSWDNQCQCTSSATRNTTKQVTPQPEEQKERKTTEMQSPMQPVDQASLPGHCREPPPWENEATERIYHFVVGQMVYYQCVQGYRALHRGPAESVCKMTHGKTRWTQPQLICTGEMETSQFPGEEKPQASPEGRPESETSCLVTTTDFQIQTEMAATMETSIFTTE
4 | – | – | – | 210 | > 2000 | > 2000 nM | > 2000 | 4.1 nM and 4.4 nM | > 2000 | > 2000 | Biotinylated human IL-2Rβ extracellular domain (residues 1-214) (receptor, biotin on the biotin acceptor peptide (BirA ligase)) AVNGTSQFTCFYNSRANISCVWSQDGALQDTSCQVHAWPDRRRWNQTCELLPVSQASWACNLILGAPDSQKLTTVDIVTLRVLCREGVRWRVMAIQDFKPFENLRLMAPISLQVVHVETHRCNISWEISQASHYFERHLEFEARTLSPGHTWEEAPLLTLKQKQEWICLETLTPDTQYEFQVRVKPLQGEFTTWSPWSQPLAFRTKPAALGKDT
